Earlier results as cited in US11458170B2, “Pharmaceutical composition comprising erythrocytes encapsulating a PLP-dependent enzyme and, a non-phosphate PLP precursor” (ERYTECH PHARMA, priority 2014, dated 2022).

How the values were obtained:
[1] = not given; remark: listed apart in the source
[2] = in vivo

| Compound | Treated animals developing anti-rMETase antibodies (IgG, IgM) (macaques) | Death after anaphylactic shock (second IV injection 28 days after the first) | Anaphylactic shock after second injection (second IV injection 28 days after the first, six monkeys) | Plasma activity of the enzyme ([1]; 24 h after IV injection, immunodeficient mice, determined in vitro without adding PLP) | Half-life in mice ([1]; mice) | Plasma half-life of free PLP [2] |
| --- | --- | --- | --- | --- | --- | --- |
| rMETase: recombinant methioninase produced in Escherichia coli from the Pseudomonas putida gene (Sun et al.) | four out of six | death of one of the two animals | in two monkeys an anaphylactic shock | undetectable | 2 h | – |
| Cc1ncc(COP(=O)(O)O)c(C=O)c1O [PLP, pyridoxal phosphate] | – | – | – | – | – | about 15 minutes |
